Substitutions are numbered along the chain they refer to. In names and notes the source's numbering stands. Values belong to the binder of their own block, whether it stands above or below them.
Tests used:
[1] = molecular target: T1, human leukemia inhibitory factor (LIF), soluble (human, UniProt P15018 23-202); test: yeast surface display titration with human LIF, flow cytometry
T1 construct: also called human LIF; soluble human LIF
Protocol: (§1) Binding to human LIF was measured via fluorescent antibody detection using flow cytometry.

[2] = molecular target: T1, human leukemia inhibitory factor (LIF), …; test: yeast surface display titration with human LIF, flow cytometry; reference yeast-displayed LIFR WT
Protocol: as §1
Results for LIFR wild-type (WT) (circles), the “PDD” variant (L218P-N42D-N277D) (squares), and the […] variant (mutations in FIG. 4, panel A) (triangles) are shown.

[3] = molecular target: T1, human leukemia inhibitory factor (LIF), …; test: yeast surface display titration with human LIF, flow cytometry; reference yeast-displayed gp130 WT
Protocol: as §1
Results for gp130 wild-type (WT) (circles), the “8M” variant (E4K-K5R-N14D-K45E-F46L-K83R-Y95D-N100S) (squares), and the ELDME variant (mutations in FIG. 4, panel A) (triangles) are shown.

[4] = molecular target: T1, human leukemia inhibitory factor (LIF), …; test: KinExA, purified Fc fusion with soluble human LIF; reference LIFR-WT-Fc
Protocol: (§2) Binding of the purified LIF inhibitors to soluble LIF was tested using KinExA. Shown in FIG. 10 are binding results for: (1) a homodimer having a WT LIFR CBMI-Ig-like-CBMII Fc fusion as each monomer; (2) a homodimer having LIFR […] Fc as each monomer;
(§3) and (3) a homodimer having LIFR-gp130 V-E fusion Fc as each monomer. KD values calculated from KinExA software and fitted curves are shown.

[5] = molecular target: T2, wild-type human gp130 CBM domain displayed on the surface of yeast (human, UniProt P40189 124-324); test: yeast-displayed receptor, no LIF added, anti-Fc detection by flow cytometry
T2 construct: also called gp130 wild-type (WT); wild-type gp130
T2 chain: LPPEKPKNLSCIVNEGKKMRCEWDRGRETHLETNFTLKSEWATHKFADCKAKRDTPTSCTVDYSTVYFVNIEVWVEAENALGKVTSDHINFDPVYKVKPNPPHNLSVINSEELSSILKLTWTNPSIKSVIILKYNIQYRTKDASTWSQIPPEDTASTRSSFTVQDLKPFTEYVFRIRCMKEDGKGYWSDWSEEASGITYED

[6] = molecular target: T3, wild-type human LIFR displayed on the surface of yeast (human, UniProt P42702 45-534, limits assumed); test: as above
T3 construct: also called LIFR wild-type (WT); wild-type LIFR
T3 sequence: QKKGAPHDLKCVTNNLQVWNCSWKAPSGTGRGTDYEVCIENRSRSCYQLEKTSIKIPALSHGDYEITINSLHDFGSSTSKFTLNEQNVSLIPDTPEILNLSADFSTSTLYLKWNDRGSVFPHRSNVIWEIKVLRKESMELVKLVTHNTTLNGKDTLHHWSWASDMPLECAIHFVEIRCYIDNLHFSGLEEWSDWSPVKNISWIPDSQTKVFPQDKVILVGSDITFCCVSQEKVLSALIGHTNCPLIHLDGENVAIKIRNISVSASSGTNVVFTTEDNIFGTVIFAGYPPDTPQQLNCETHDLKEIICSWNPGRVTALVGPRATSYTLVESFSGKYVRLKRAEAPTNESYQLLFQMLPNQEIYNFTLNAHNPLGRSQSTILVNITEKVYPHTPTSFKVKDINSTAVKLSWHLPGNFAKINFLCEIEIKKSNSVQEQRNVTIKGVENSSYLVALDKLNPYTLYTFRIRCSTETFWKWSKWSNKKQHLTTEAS

[7] = molecular target: T1, human leukemia inhibitory factor (LIF), …; test: cell-based or functional assay
[8] = molecular target: T1, human leukemia inhibitory factor (LIF), …; test: KinExA, purified Fc fusion with soluble human LIF
[9] = molecular target: T1, human leukemia inhibitory factor (LIF), …; test: KinExA with soluble human LIF; inhibitor titrated
Protocol: as §2

[10] = molecular target: T1, human leukemia inhibitory factor (LIF), …; test: KinExA with soluble human LIF; KD calculated by the KinExA software
Protocol: as §2

[11] = molecular target: T1, human leukemia inhibitory factor (LIF), …; test: KinExA with soluble human LIF; KD calculated by the KinExA software. The unit is written as printed; the curve lies beside that of LIFR VPRVVAID Fc (Kd in pM)
Protocol: as §2, §3

human LIF-His = molecular target: T4, human LIF-His (human, UniProt P15018 23-202); test: competition on yeast: displayed wild-type LIFR or gp130 saturated with LIF-His, inhibitor added in excess; anti-His signal normalized to LIF alone
T4 construct: also called soluble LIF-His; not shown: His6 tag
Protocol: FIG. 14 LIF inhibitors compete LIF away from wild-type receptors. Panel A: Schematic illustration of competitive binding assay. […] Human LIF-His is incubated at saturating concentrations. Inhibitors (LIFR-[…]-Fc depicted) are then co-incubated with LIF-bound yeast, in excess. LIF binding is detected via His6-tag on LIF. The less LIF that remains bound after inhibitor incubation, the better the inhibitor is able to compete LIF away from the WT receptor. Panel B: Results from competitive binding experiment. […] Fraction bound is the fluorescent emission detected from the LIF-His, normalized to No Inhibitor added. Competitive binding of LIFR-WT-Fc, gp130-ELDME-Fc (Eng.), LIFR-[…]-Fc (Eng.), LIFR-gp130 Fusion-Fc (Eng.), LIFR-gp130 Heterodimeric Fc (Eng.), Anti-LIF mAb L1, and Anti-LIF mAb G1 are shown.
Human LIF-His is introduced at saturating concentrations. Inhibitors (LIFR-[…]-Fc depicted) are then co-incubated with LIF-bound yeast, in excess. LIF binding is detected via His6-tag on LIF. The less LIF that remains bound after inhibitor incubation, the better the inhibitor is able to compete LIF away from the WT receptor.

B2: gp130 ELDME variant displayed on the surface of yeast (receptor)
chain: T2 chain with K45E, F46L, Y95D, I130M, K184E
notes: also called K45E-F46L-Y95D-I130M-K184E
Kd [1]: 5 nM | fold higher affinity compared to wild-type (WT) [3]: 12 fold

B4: LIFR CBMI-Ig-like-CBMII (VPRVVAID)-gp130 CBM (ELDME) Fc fusion homodimer (Fc fusion)
chain: QKKGAPHDLKCVTNNLQVWNCSWKAPSGTGRGTDYEVCIENRSRSCYQLEKTSIKIPALSHGDYEITINSLHDFGSSTSKFTLNEQNVSLIPDTPEILNLSADFSTSTLYLKWNDRGSVFPHRSNVIWEIKVLRKESMELVKLVTHNTTLNGKDTLHHWSWASDMPLECAIHFVEIRCYIDNLHFSGLEEWSDWSPVKNISWIPDSQTKVFPQDKVVPVGSDITFCCVSQEKVLSALIGRTNCPLIHLDGENVAIKVRNVSASASSGTNVVFITEDDIFGTVIFAGYPPDTPQQLNCETHDLKEIICSWNPGRVTALVGPRATSYTLVESFSGKYVRLKRAEAPTNESYQLLFQMLPNQEIYNFTLNAHNPLGRSQSTILVNITEKVYPHTPTSFKVKDINSTAVKLSWHLPGNFAKINFLCEIEIKKSNSVQEQRNVTIKGVENSSYLVALDKLNPYTLYTFRIRCSTETFWKWSKWSNKKQHLTTEASGGGGSGGGGSGGGGSGGGGSGGGGSLPPEKPKNLSCIVNEGKKMRCEWDRGRETHLETNFTLKSEWATHELADCKAKRDTPTSCTVDYSTVYFVNIEVWVEAENALGKVTSDHINFDPVDKVKPNPPHNLSVINSEELSSILKLTWTNPSIKSVMILKYNIQYRTKDASTWSQIPPEDTASTRSSFTVQDLKPFTEYVFRIRCMKEDGEGYWSDWSEEASGITYEDGSGSGSDKTHTCPPCPAPELLGGPSVFLFPPKPKDTLMISRTPEVTCVVVDVSHEDPQVKFNWYVDGVQVHNAKTKPREQQYNSTYRVVSVLTVLHQNWLDGKEYKCKVSNKALPAPIEKTISKAKGQPREPQVYTLPPSREEMTKNQVSLTCLVKGFYPSDIAVEWESNGQPENNYKTTPPVLDSDGSFFLYSKLTVDKSRWQQGNVFSCSVMHEALHNHYTQKSLSLSPGK
notes: also called LIFR-gp130 Fusion-Fc; LIFR-gp130 V-E fusion Fc
binding result [5]: no binding | binding result [6]: no binding | EC50 (read off the curve) [9]: ~0.06 nM | Kd [11]: 30.8 nM

More lines, now with the values ahead:

Kd [1]: 0.03 nM | fold higher affinity compared to wild-type (WT) [2]: 32 fold
B1: LIFR VPRVVAID variant displayed on the surface of yeast (receptor)
chain: T3 sequence with I217V, L218P, H240R, I257V, I260V, V262A, T273I, N277D
notes: also called I217V-L218P-H240R-I257V-I206V-V262A-T2711-N277D

fold improvement in affinity over LIFR-WT-Fc [4]: 43 fold | binding result [5]: no binding | binding result [6]: no binding | IC50, inhibition of LIF derived luciferase activity in HeLa STAT3 luciferase reporter cells [7]: 0.035 nM | fold improvement in IC50 over LIFR WT Fc, inhibition of LIF derived luciferase activity in HeLa reporter cells [7]: 53 fold | Kd [8]: 0.023 nM | EC50 (read off the curve) [9]: ~0.05 nM | Kd [10]: 0.0231 nM
B3: LIFR CBMI-Ig-like-CBMII (VPRVVAID) Fc fusion homodimer (Fc fusion)
chain: QKKGAPHDLKCVTNNLQVWNCSWKAPSGTGRGTDYEVCIENRSRSCYQLEKTSIKIPALSHGDYEITINSLHDFGSSTSKFTLNEQNVSLIPDTPEILNLSADFSTSTLYLKWNDRGSVFPHRSNVIWEIKVLRKESMELVKLVTHNTTLNGKDTLHHWSWASDMPLECAIHFVEIRCYIDNLHFSGLEEWSDWSPVKNISWIPDSQTKVFPQDKVVPVGSDITFCCVSQEKVLSALIGRTDCPLIHLDGENVAIKVRNVSASASSGTNVVFITEDDIFGTVIFAGYPPDTPQGSQLNCETHDLKEIICSWNPGRVTALVGPRATSYTLVESFSGKYVRLKRAEAPTNESYQLLFQMLPNQEIYNFTLNAHNPLGRSQSTILVNITEKVYPHTPTSFKVKDINSTAVKLSWHLPGNFAKINFLCEIEIKKSNSVQEQRNVTIKGVENSSYLVALDKLNPYTLYTFRIRCSTETFWKWSKWSNKKQHLTTEASGSGSGSDKTHTCPPCPAPELLGGPSVFLFPPKPKDTLMISRTPEVTCVVVDVSHEDPQVKFNWYVDGVQVHNAKTKPREQQYNSTYRVVSVLTVLHQNWLDGKEYKCKVSNKALPAPIEKTISKAKGQPREPQVYTLPPSREEMTKNQVSLTCLVKGFYPSDIAVEWESNGQPENNYKTTPPVLDSDGSFFLYSKLTVDKSRWQQGNVFSCSVMHEALHNHYTQKSLSLSPGK

binding result [5]: no binding | binding result [6]: no binding | binding result (human LIF-His): binds
B5: gp130 CBM domain (ELDME) Fc fusion homodimer (Fc fusion)
chain: LPPEKPKNLSCIVNEGKKMRCEWDRGRETHLETNFTLKSEWATHELADCKAKRDTPTSCTVDYSTVYFVNIEVWVEAENALGKVTSDHINFDPVDKVKPNPPHNLSVINSEELSSILKLTWTNPSIKSVMILKYNIQYRTKDASTWSQIPPEDTASTRSSFTVQDLKPFTEYVFRIRCMKEDGEGYWSDWSEEASGITYEDGSGSGSDKTHTCPPCPAPELLGGPSVFLFPPKPKDTLMISRTPEVTCVVVDVSHEDPQVKFNWYVDGVQVHNAKTKPREQQYNSTYRVVSVLTVLHQNWLDGKEYKCKVSNKALPAPIEKTISKAKGQPREPQVYTLPPSREEMTKNQVSLTCLVKGFYPSDIAVEWESNGQPENNYKTTPPVLDSDGSFFLYSKLTVDKSRWQQGNVFSCSVMHEALHNHYTQKSLSLSPGK
notes: also called gp130-ELDME-Fc; gp130 ELDME Fc

From patent publication US20210300992A1 (Stanford University, published 2021)
